Target: KLC1 TPR domain (kinesin light chain 1 tetratricopeptide repeat domain) (human) (UniProt Q07866)
Test: ITC; protein-protein: 15 uM KLC1-TPR and 160 uM ALC1 protein; 25 C; 30 mM HEPES 7.4, 200 mM NaCl, 0.5 mM TCEP; one-site binding model

Kd: 2400 nM
stoichiometry N: 0.85
Substance: cytosolic domain of ALC1 protein (alcadein-1) (domain or fragment)

Source: PMC3314626, “Crystal Structures of the Tetratricopeptide Repeat Domains of Kinesin Light Chains: Insight into Cargo Recognition Mechanisms” (PLoS ONE, 2012)
